Values of other authors in publication PMC6302113.

Target: IL-22 (Homo sapiens) (UniProt Q9GZX6)
Sequence of UniProt Q9GZX6 (Q9GZX6 34-179): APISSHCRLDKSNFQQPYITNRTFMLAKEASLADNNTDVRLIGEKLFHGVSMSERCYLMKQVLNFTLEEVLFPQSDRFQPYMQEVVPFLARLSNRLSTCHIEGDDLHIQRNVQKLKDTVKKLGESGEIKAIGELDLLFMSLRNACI

Kd: 1 pM
Substance: IL-22BPi2 (from UniProt Q969J5)
